The values that follow come from patent US20230304022, “CHIMERIC POLYPEPTIDES HAVING TARGETED BINDING SPECIFICITY” (The Scripps Research Institute, published 2023).

The chains are these.
B1: Avr 5'C biotin hairpin (dsDNA)
DNA: ATCTTAGCACCTGGTTGGAGGGGGTTTATGGGGTTTTCCCCATAAACCCCCTCCAACCAGGTGCTAAGAT
B2: Avr 5'G biotin hairpin (dsDNA)
DNA: ATCTTAGCACCTGGTTGGAGGGGGTTTATCGGGTTTTCCCGATAAACCCCCTCCAACCAGGTGCTAAGAT
B3: Avr 5'A biotin hairpin (dsDNA)
DNA: ATCTTAGCACCTGGTTGGAGGGGGTTTATTGGGTTTTCCCAATAAACCCCCTCCAACCAGGTGCTAAGAT

The data set addresses MBP-TALE AvrXa7 NT-βN (synthetic, [XXX]=Y-H). The data set can be described thus: p228, FIG 26. The note with it: tags: MBP; label: 5'-biotin; hairpin.
For B1, the binding result was “binds”.
The result for B2 reads “binds”; that for B3, “binds”.
